Measurements: PMC5703999, “The E. coli dicarboxylic acid transporters DauA act as a signal transducer by interacting with the DctA uptake system” (Scientific Reports, 2017)

B1: DcuS fused to the T18 or T25 domain of adenylate cyclase (natural protein, E. coli, UniProt P0AEC8 1-543, looked up)
chain: MRHSLPYRMLRKRPMKLSTTVILMVSAVLFSVLLVVHLIYFSQISDMTRDGLANKALAVARTLADSPEIRQGLQKKPQESGIQAIAEAVRKRNDLLFIVVTDMQSLRYSHPEAQRIGQPFKGDDILKALNGEENVAINRGFLAQALRVFTPIYDENHKQIGVVAIGLELSRVTQQINDSRWSIIWSVLFGMLVGLIGTCILVKVLKKILFGLEPYEISTLFEQRQAMLQSIKEGVVAVDDRGEVTLINDAAQELLNYRKSQDDEKLSTLSHSWSQVVDVSEVLRDGTPRRDEEITIKDRLLLINTVPVRSNGVIIGAISTFRDKTEVRKLMQRLDGLVNYADALRERSHEFMNKLHVILGLLHLKSYKQLEDYILKTANNYQEEIGSLLGKIKSPVIAGFLISKINRATDLGHTLILNSESQLPDSGSEDQVATLITTLGNLIENALEALGPEPGGEISVTLHYRHGWLHCEVNDDGPGIAPDKIDHIFDKGVSTKGSERGVGLALVKQQVENLGGSIAVESEPGIFTQFFVQIPWDGERSNR
notes: Membrane embedded sensor histidine kinase DcuS, E. coli; also called DcuS-T18; DcuS-T25; source: bacterial two-hybrid fusion (pUT18 or pKNT25), in E. coli BTH101 (cyaA-); not shown: T18 or T25 domain of Bordetella pertussis adenylate cyclase CyaA, C-terminal, kept
B2: AmtB (ammonium transporter), two-hybrid fusion (natural protein, UniProt P69681 1-428, looked up)
chain: MKIATIKTGLASLAMLPGLVMAAPAVADKADNAFMMICTALVLFMTIPGIALFYGGLIRGKNVLSMLTQVTVTFALVCILWVVYGYSLAFGEGNNFFGNINWLMLKNIELTAVMGSIYQYIHVAFQGSFACITVGLIVGALAERIRFSAVLIFVVVWLTLSYIPIAHMVWGGGLLASHGALDFAGGTVVHINAAIAGLVGAYLIGKRVGFGKEAFKPHNLPMVFTGTAILYIGWFGFNAGSAGTANEIAALAFVNTVVATAAAILGWIFGEWALRGKPSLLGACSGAIAGLVGVTPACGYIGVGGALIIGVVAGLAGLWGVTMLKRLLRVDDPCDVFGVHGVCGIVGCIMTGIFAASSLGGVGFAEGVTMGHQLLVQLESIAITIVWSGVVAFIGYKLADLTVGLRVPEEQEREGLDVNSHGENAYNA
notes: Ammonium transporter AmtB; source: bacterial two-hybrid fusion, in E. coli BTH101 (cyaA-)

How the values were obtained:
[1] = target: T1, DctA fused to the T18 or T25 domain of adenylate cyclase (E. coli, UniProt P0A830 1-428); test: two-hybrid; bacterial two-hybrid (BTH): T18 and T25 fusions co-transformed in E. coli BTH101 (cyaA-), grown overnight in LB at 30 °C; beta-galactosidase activity; background below 150 Miller units; the reporter strain expresses chromosomal DctA and DcuS; conditions: partners not purified
T1 construct: Aerobic C4-dicarboxylate transport protein DctA, E. coli; also called DctA-T25; DctA-T18; source: bacterial two-hybrid fusion (pUT18 or pKNT25), in E. coli BTH101 (cyaA-); not shown: T18 or T25 domain of Bordetella pertussis adenylate cyclase CyaA, C-terminal, kept
T1 sequence (looked up): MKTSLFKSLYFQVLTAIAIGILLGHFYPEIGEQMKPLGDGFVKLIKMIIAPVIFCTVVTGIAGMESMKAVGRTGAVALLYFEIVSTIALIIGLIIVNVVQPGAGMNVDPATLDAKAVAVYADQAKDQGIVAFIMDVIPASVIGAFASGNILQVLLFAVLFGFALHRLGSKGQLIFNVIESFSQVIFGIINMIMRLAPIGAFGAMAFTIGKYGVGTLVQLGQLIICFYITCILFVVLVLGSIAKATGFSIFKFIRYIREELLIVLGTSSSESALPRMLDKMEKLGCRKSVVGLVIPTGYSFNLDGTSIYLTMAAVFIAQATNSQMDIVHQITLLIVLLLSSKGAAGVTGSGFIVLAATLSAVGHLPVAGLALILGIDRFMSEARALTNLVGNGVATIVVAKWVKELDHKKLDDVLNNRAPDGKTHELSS

[2] = target: T2, DauA fused to the T18 or T25 domain of adenylate cyclase (E. coli, UniProt P0AFR2 1-559); test: as above; conditions: partners not purified
T2 construct: C4-dicarboxylic acid transporter DauA (previously YchM), E. coli; Stood with T18 and with T25 in reciprocal pairings; one molecule for both; also called DauA-T18; DauA-T25; source: bacterial two-hybrid fusion (pUT18 or pKNT25), in E. coli BTH101 (cyaA-); not shown: T18 or T25 domain of Bordetella pertussis adenylate cyclase CyaA, C-terminal, kept
T2 sequence (looked up): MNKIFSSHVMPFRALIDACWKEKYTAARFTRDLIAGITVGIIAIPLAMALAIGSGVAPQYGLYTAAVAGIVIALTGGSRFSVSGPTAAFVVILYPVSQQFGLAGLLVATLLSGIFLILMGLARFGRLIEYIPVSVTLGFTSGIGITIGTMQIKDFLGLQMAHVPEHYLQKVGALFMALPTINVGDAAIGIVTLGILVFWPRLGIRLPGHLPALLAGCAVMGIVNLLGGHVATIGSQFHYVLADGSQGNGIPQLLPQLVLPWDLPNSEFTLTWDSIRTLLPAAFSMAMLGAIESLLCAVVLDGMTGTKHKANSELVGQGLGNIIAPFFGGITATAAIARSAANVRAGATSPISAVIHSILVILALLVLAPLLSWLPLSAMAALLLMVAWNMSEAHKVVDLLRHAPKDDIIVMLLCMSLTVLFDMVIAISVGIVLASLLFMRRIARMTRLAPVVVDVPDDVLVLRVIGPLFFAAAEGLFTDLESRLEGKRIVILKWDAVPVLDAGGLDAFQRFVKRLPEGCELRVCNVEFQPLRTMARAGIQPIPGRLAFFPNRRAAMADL

Row | Binder | beta-galactosidase activity [1] [Miller units] | beta-galactosidase activity [2] [Miller units]
1 | B1 | 252 | –
2 | B2 | – | < 150
